Earlier results on 1 substance are cited in publication PMC2846211.

As usually defined, the pKd is −log10 of the Kd, conventionally taken in molar units.

pKd: −log10 of the molar value.

In the data set the target is DNA polymerase gamma accessory subunit (Homo sapiens) (UniProt Q9UHN1).
Sequence of UniProt Q9UHN1 (Q9UHN1 2-485): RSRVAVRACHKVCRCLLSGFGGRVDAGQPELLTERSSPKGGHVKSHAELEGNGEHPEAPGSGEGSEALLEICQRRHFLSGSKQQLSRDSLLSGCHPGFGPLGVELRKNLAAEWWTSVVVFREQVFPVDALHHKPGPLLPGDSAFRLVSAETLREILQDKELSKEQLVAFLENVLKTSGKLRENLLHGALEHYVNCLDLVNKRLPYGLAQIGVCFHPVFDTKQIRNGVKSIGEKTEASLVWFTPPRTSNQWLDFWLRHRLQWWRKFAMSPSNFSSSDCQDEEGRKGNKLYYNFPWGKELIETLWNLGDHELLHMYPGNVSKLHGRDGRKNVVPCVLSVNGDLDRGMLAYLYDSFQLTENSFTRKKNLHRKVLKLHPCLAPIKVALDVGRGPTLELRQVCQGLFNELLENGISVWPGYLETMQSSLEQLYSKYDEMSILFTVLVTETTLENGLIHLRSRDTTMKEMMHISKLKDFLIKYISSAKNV

With “DNA polymerase gamma catalytic subunit (from UniProt P54098)”, the pKd was 7.46.
